Reference: patent US20160024208A1 (Regeneron, published 2016)

How the values were obtained:
[1] = molecular target: T1, full-length human Nav1.7 fused at its N-terminus to GFP, expressed in HEK293 cells (human, UniProt Q15858 1-1988); experiment: flow cytometry; % stained hNav1.7-GFP-HEK293 minus parental HEK293
T1 construct: Voltage-gated sodium channel alpha subunit; In the Western blot it stood as denatured cell lysate; also called hNav 1.7-GFP-HEK293; Nav 1.7-GFP-HEK293; not shown: green fluorescent protein (GFP) at the N-terminus
Procedure: The binding of anti-Naᵥ 1.7 human antibodies to full-length Naᵥ 1.7 expressed in HEK293 cells was determined by flow cytometry (FACS). HEK293 cells were stably-transfected with full-length human Nav1.7 fused at its N-terminus to the green fluorescent protein (GFP) to generate cell line hNaᵥ 1.7-GFP-HEK293. Antibody binding to the transfected cells overexpressing Naᵥ 1.7 was compared to binding to the parental HEK293 cell line. To perform the binding experiments, adherent cells were collected using 1 mM EDTA in PBS, washed and re-suspended in cold PBS containing 5% FBS. For each binding experiment, the anti-Naᵥ 1.7 antibody (at concentrations ranging from 1 nM to 13 nM), was added to 250,000 cells in 500 μL of PBS with 5% FBS. After incubation for 20 minutes on ice, the secondary antibody, recognizing either human-Fc and conjugated to cyanine 5 (Cy5) or recognizing mouse-Fc and conjugated to allophyocyanin (APC), was then added to the cell mixture at a final secondary antibody concentration of 1.7 nM. After incubating for 20 minutes on ice, the cells were resuspended in PBS+5% FBS and then sorted and analyzed on a flow cytometer to determine relative binding by the candidate antibodies. For FACS analysis, gating was applied to examine only healthy live cells in the antibody binding experiments, and percentage stained was recorded. Staining of secondary antibodies alone to Naᵥ 1.7-GFP-HEK293 cells gave low background signals (1-2%). Specific binding was measured as the percent binding to Naᵥ 1.7-GFP-HEK293 cells minus percent binding to parental HEK293 cells.

[2] = molecular target: T2, C-term Biotin Nav1.7 (3-1) peptide, human (human, not fully specified; C-terminal biotin attached via a G4S linker); experiment: SPR, captured biotin-peptide, antibody analyte
T2 construct: Synthetic peptide; also called Human Nav1.7 3-1 C-term biotin
T2 peptide: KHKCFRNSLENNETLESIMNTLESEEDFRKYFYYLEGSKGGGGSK
Procedure: (§1) The binding affinities of anti-Naᵥ 1.7 antibodies to Naᵥ 1.7 loop peptides were determined by Biacore. For monovalent kinetic experiments, antibodies were captured through the Fc region via a goat anti-Fc-coupled biosensor surface, and the peptides (as analyte) were injected over this captured antibody surface. For bivalent (avidity-driven) kinetic experiments, biotinylated peptides corresponding to the Naᵥ 1.7 3-1, 3-3, or paddle loop sequences were captured on a NeutrAvidin sensor surface, and anti-Naᵥ 1.7 antibodies (as analyte) were injected over this surface. Following the capture step, each analyte was individually injected at several concentrations over its respective capture surface, and changes in bound surface units (RU) were monitored. The dissociation rate is independent of the concentration of analyte used in the experiment, and the dissociation rate constant (kd) was determined from the change in antibody-bound analyte RU over time. The Biacore kinetic data were obtained using a double referencing procedure. The double referencing was conducted by first subtracting any interaction of the analyte over the reference surface (i.e., the anti-Fc coupled surface alone or the NeutrAvidin surface alone), thereby correcting for nonspecific binding to capture surface and for refractive index changes. Control buffer injections (no analyte) over the antibody- or peptide-captured surfaces were also performed to allow subtraction of RU signal changes resulting from the natural dissociation of captured binding partner from the sensor surface. The kinetic parameters were obtained by globally fitting the data for all concentrations tested for a given peptide or antibody to a 1:1 binding model using Biacore T100 Evaluation Software version 2.0.2. The KD was calculated as the dissociation rate constant divided by the association rate constant (KD=kd/kₐ). The dissociative half-life (t_{1/2}) was calculated from the dissociation rate constant (t_{1/2}=In2/kd).

[3] = molecular target: T3, N-Term Biotin Nav1.7 (3-1) peptide, mulatta (mulatta (monkey), not fully specified; N-terminal biotin attached via a G4S linker); experiment: ELISA on coated peptide, antibody 1 ug/ml, OD450 grade
T3 construct: Synthetic peptide; also called Mulatta Nav1.7 3-1 N-term biotin; monkey
T3 peptide: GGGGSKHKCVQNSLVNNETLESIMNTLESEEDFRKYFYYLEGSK
Procedure: (§2) Anti-Naᵥ 1.7 antibodies were tested for their ability to bind to the Naᵥ 1.7 peptides. The various peptides were coated overnight onto 96-well Nunc Immunosorp plates at a concentration of 4 μg/mL in PBS, followed by blocking for 1 hour in a suitable blocking agent. For biotinylated peptides, avidin was first coated on Nunc Immunosorp plates at 2 μg/mL in PBS overnight, followed by blocking as described, and the plate was then coated with biotinylated peptides at a concentration of 0.4 μg/mL and incubated for 1 hour at room temperature. Purified anti-Naᵥ 1.7 antibodies were diluted to a final concentration of 0.1 μg/mL and 1.0 μg/mL and added to the wells of the coated microtiter plates followed by incubation for 1 hour at room temperature. Bound antibodies were detected with horseradish peroxidase (HRP) conjugated anti-mouse or anti-human IgG (Jackson Immuno Research Lab, West Grove, Pa.) depending on the antibody species and developed by colorimetric response using tetramethylbenzidine (TMB) substrate (BD Biosciences). Absorbance was read at OD₄₅₀ on a plate reader for 0.1 second.
(§3) Values in Table 11 represent absolute binding ranges (at OD450) to plate-coated peptides for antibodies added at 1 μg/ml as follows: OD450<0.2: −; 0.2<OD450<1: +; 1<OD450<2: ++; 2<OD450<4: +++; NT: Not Tested.

[4] = molecular target: T4, N-Term Biotin-Nav1.7 (3-1) peptide, human (human, not fully specified; N-terminal biotin attached via a G4S linker); experiment: as above
T4 construct: ELISA peptide
T4 peptide: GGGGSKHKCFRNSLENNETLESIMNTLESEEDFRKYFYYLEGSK
Procedure: as §2, §3

[5] = molecular target: T5, N-Term Biotin Nav1.7 (3-1) peptide, mouse (mouse, not fully specified; N-terminal biotin attached via a G4S linker); experiment: as above
T5 construct: Synthetic peptide; also called Mouse Nav1.7 3-1 N-term biotin
T5 peptide: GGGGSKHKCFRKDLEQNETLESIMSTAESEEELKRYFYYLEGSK
Procedure: as §2, §3

[6] = molecular target: T6, Native Nav1.7 (3-1) peptide, rat (rat); experiment: as above
T6 construct: Synthetic peptide; also called Rat Nav1.7 3-1 native
T6 peptide: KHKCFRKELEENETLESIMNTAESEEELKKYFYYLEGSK
Procedure: as §2, §3

[7] = molecular target: T3, N-Term Biotin Nav1.7 (3-1) peptide, …; experiment: SPR, captured antibody, peptide analyte
Procedure: as §1

[8] = molecular target: T5, N-Term Biotin Nav1.7 (3-1) peptide, …; experiment: SPR, captured antibody, peptide analyte
Procedure: as §1

[9] = molecular target: T6, Native Nav1.7 (3-1) peptide, rat; experiment: SPR, captured antibody, peptide analyte
Procedure: as §1

[10] = molecular target: T7, Native Nav1.7 (3-1) peptide, human (human); experiment: SPR, captured antibody, peptide analyte
T7 construct: Synthetic peptide (Celtek), unbiotinylated; also called Human Nav1.7 3-1 native; Nav1.7 3-1 native peptide
T7 peptide: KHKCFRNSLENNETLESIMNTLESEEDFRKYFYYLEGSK
Procedure: as §1

[11] = molecular target: T1, full-length human Nav1.7 fused at its …; experiment: cell-based or functional assay

B1: H4H367B (antibody, V domains shown)
VH: QVQLVQSGGGVVQPGRSLRLSCAASGFSFSSFGMHWVRQAPGKGLEWVAVISYGGINKHYSDSVKGRFTISRDDSKNTLYLQMNSLRAEDTAVYYCAKREGYRYAYDYWGQGTLVTVSS
VL: DIQMTQSPSSLSASVGDRVTITCRASQGISNYLAWFQQKPGKAPKSLIYGASSLQSGVPSKFSGSGSGTDFTLTISSLQPEDFATYYCQQYNSYPLTFGGGTKVEIKR
- % Binding Nav1.7 [1]: 15.8%
- Kd [2]: 0.341 nM
- t1/2 [2]: 94 min
- OD450 [3]: 2 to 4 od
- OD450 [4]: 2 to 4 od
- OD450 [5]: 2 to 4 od
- OD450 [6]: 2 to 4 od
- Kd [7]: 0.63 nM
- t1/2 [7]: 23.7 min
- Kd [8]: 107 nM
- t1/2 [8]: 0.59 min
- Kd [9]: 88 nM
- t1/2 [9]: 0.42 min
- Kd [10]: 4.67 nM
- t1/2 [10]: 10.5 min
- Current blocking (Average % inhibition), IonWorks Quattro, 223 nM antibody [11]: -35%

B2: H4H397B (antibody, V domains shown)
VH: QVQLVQSGGGVVQPGRSLRLSCAASGFTFSSYGMHWVRQAPGKGLEWVALISYAGINEYYADSVKGRFTISRDDSKNTLYLQMNSLRVEDTAVYYCAKSRGYSYGLGYWGQGTLVTVSS
VL: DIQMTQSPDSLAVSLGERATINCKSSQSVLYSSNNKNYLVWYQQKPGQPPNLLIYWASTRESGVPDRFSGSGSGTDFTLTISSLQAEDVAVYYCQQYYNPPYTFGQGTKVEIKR
- Kd [2]: 0.299 nM
- t1/2 [2]: 206 min
- OD450 [3]: 2 to 4 od
- OD450 [4]: 2 to 4 od
- OD450 [5]: 2 to 4 od
- OD450 [6]: 2 to 4 od
- Kd [7]: 0.097 nM
- t1/2 [7]: 289 min
- Kd [8]: 43.5 nM
- t1/2 [8]: 3.92 min
- Kd [9]: 14.2 nM
- t1/2 [9]: 3.3 min
- Kd [10]: 2.37 nM
- t1/2 [10]: 34 min
- Current blocking (Average % inhibition), IonWorks Quattro, 223 nM antibody [11]: -50%

B3: H1M834N (antibody, V domains shown)
VH: QVQLVESGGGVVQPGRSQRLSCAASGFTFSHYGMHWVRQAPGKGLEWVAVISYDGNNKHYADSVKGRFTTSRDNSKNTLFLQMNSLRAEDTAVYYCARGYSGYVLDYWGQGTLVTVSS
VL: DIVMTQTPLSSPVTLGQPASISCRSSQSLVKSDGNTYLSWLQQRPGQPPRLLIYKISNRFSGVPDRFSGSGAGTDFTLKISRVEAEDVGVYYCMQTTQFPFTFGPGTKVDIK
- % Binding Nav1.7 [1]: 4.8%
- Kd [2]: 0.751 nM
- t1/2 [2]: 82.5 min
- OD450 [3]: 2 to 4 od
- OD450 [4]: 2 to 4 od
- OD450 [5]: 1 to 2 od
- OD450 [6]: 2 to 4 od
- Kd [7]: 2.39 nM
- t1/2 [7]: 20.3 min
- Kd [8]: 19.2 nM
- t1/2 [8]: 2.8 min
- Kd [9]: 10.2 nM
- t1/2 [9]: 2.3 min
- Kd [10]: 5.53 nM
- t1/2 [10]: 12 min
- Current blocking (Average % inhibition), IonWorks Quattro, 223 nM antibody [11]: -14%

B4: H1M875N (antibody, V domains shown)
VH: QVQLVESGGGVVQPGRSQRLSCAASGFTFSHYGMHWVRQAPGKGLEWVAVISYDGNNKHYADSVKGRFTTSRDNSKNTLFLQMNSLRAEDTAVYYCARGYSGYVLDYWGQGTLVTVSS
VL: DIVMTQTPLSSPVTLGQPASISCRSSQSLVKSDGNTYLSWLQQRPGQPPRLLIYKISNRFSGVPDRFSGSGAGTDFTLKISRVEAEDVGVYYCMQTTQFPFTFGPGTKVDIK
notes: also called H1H875N
- % Binding Nav1.7 [1]: 5.9%
- Kd [2]: 0.78 nM
- t1/2 [2]: 87.2 min
- OD450 [3]: 2 to 4 od
- OD450 [4]: 2 to 4 od
- OD450 [5]: 2 to 4 od
- OD450 [6]: 2 to 4 od
- Kd [7]: 1.89 nM
- t1/2 [7]: 26.5 min
- Kd [8]: 12 nM
- t1/2 [8]: 3.2 min
- Kd [9]: 6.7 nM
- t1/2 [9]: 3 min
- Kd [10]: 5.85 nM
- t1/2 [10]: 12.5 min
- Current blocking (Average % inhibition), IonWorks Quattro, 223 nM antibody [11]: 25%

B5: H1M839N (antibody, V domains shown)
VH: QVQLVESGGGVVQPGRSLRLSCAASGFTFSNYGMHWVRQAPGKGLEWVAVTSYDGSNKHYADSVKGRFSTSRDNPKNTLYLQMDSLRGEDTAVYYCARGYSGFVLDNWGQGTLVTVSS
VL: DIVMTQTPLSSPVTLGQPASISCRSSQSLVKSDGNTYLSWLQQRPGQPPRLLIYKISNRFSGVPDRFSGSGAGTDFTLKISRVEAEDVGIYYCMQTTQFPFTFGPGTKVDIK
- % Binding Nav1.7 [1]: 5.1%
- Kd [2]: 0.692 nM
- t1/2 [2]: 137 min
- OD450 [3]: 2 to 4 od
- OD450 [4]: 2 to 4 od
- OD450 [5]: 2 to 4 od
- OD450 [6]: 2 to 4 od
- Kd [7]: 1.47 nM
- t1/2 [7]: 28.7 min
- Kd [8]: 15.1 nM
- t1/2 [8]: 3.1 min
- Kd [9]: 7.11 nM
- t1/2 [9]: 3.2 min
- Kd [10]: 3.32 nM
- t1/2 [10]: 18.2 min
- Current blocking (Average % inhibition), IonWorks Quattro, 223 nM antibody [11]: 13%

B6: H1H1008B (antibody, V domains shown)
VH: EVQLVQSGPGLVKSSETLSLKCTVSGGSISSSGYYWGWIRQPPGKGLEWIGSIHRSGSTFYNPSLKSRVTISVDTSKSQFSLRLTSVTAADTSVYFCGRHGRDYYYGMDVWGQGTTVTVSS
VL: DIQMTQSPSSVSASVGDRVTITCRSSQDINNWLVWYQQKPGKAPKVLIYGASRLQSGVPSRFSGSGSGTDFTLTISSLQPEDFATYYCQQANSFPLTFGGGTKLEIKR
notes: Fully human antibody; also called H4H1008B
- % Binding Nav1.7 [1]: 12.5%
- Kd [2]: 0.123 nM
- t1/2 [2]: 84.2 min
- OD450 [3]: 2 to 4 od
- OD450 [4]: 2 to 4 od
- OD450 [5]: 2 to 4 od
- OD450 [6]: 2 to 4 od
- Kd [7]: 1.11 nM
- t1/2 [7]: 17.5 min
- Kd [8]: 14.8 nM
- t1/2 [8]: 1.3 min
- Kd [9]: 4.67 nM
- t1/2 [9]: 3.1 min
- Kd [10]: 4.31 nM
- t1/2 [10]: 4 min
- Current blocking (Average % inhibition), IonWorks Quattro, 223 nM antibody [11]: 38%
